According to patent WO2020165374A1 (dated 2020):

How the values were obtained:
[1] = target: T1, human recombinant IL-15 (SinoBiological ref#10360-H07E) (human, UniProt P40933 49-162); assay: ELISA, human IL-15 immobilized, anti-human IgG peroxidase detection
T1 construct: also called Human IL-15; IL-15 cytokine

[2] = target: T2, recombinant human PD-1 (Sino Biologicals, reference 10377-H08H) (human, UniProt Q15116 25-167); assay: ELISA, recombinant hPD1 immobilized, anti-human IgG peroxidase detection
T2 construct: Bought protein; also called recombinant hPDl; Human recombinant PD-1
T2 sequence (Q15116 25-167 limits assumed): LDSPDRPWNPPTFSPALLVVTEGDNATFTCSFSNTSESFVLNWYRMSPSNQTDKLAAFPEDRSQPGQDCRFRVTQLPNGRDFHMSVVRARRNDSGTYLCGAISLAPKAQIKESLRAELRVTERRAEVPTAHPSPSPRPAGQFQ

T1 sequence (P40933 49-162 limits assumed, stated change not applied): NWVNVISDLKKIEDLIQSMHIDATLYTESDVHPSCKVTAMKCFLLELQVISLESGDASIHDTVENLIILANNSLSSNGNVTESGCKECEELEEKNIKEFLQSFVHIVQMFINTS

B1: anti-PD-1 antibody (antibody, human IgG4 S228P, kappa, V domains shown)
VH: QIQLVQSGSELKKPGASVKVSCKASGYTFTHYAMNWVRQAPGQGLEWMGWINTNTGEPTYAQGFTGRFVFSLDTSVSTAYLQISSLKAEDTAVYYCAREREPGMDNWGQGTLVTVSS
VL: DVVMTQSPLSLPVTLGQPASISCRSSQSLVHANTNTYLEWYQQRPGQSPRLLIYKVSNRFSGVPDRFSGSGSGTDFTLKISRVEAEDVGVYYCFQGTHVPNTFGQGTKLEIKR
notes: also called Anti-PDl; anti-PD-1 alone
B1: no binding [1]; binds [2].
